Data published in publication PMC8945853, “Androgen Glucuronidation in Mice: When, Where, and How” (Biology, 2022).

What was measured:
Experiment in all cases: cells, lysate or membranes
[1] = substrate: C[C@]12CC[C@@H](O)C[C@@H]1CC[C@@H]1[C@@H]2CC[C@]2(C)[C@@H](O)CC[C@@H]12; settings: UDP-glucuronic acid co-substrate, 37 °C, 17-glucuronide (3α-Diol-17G) formation
[2] = substrate: C[C@]12CCC(=O)C[C@@H]1CC[C@@H]1[C@@H]2CC[C@]2(C)[C@@H](O)CC[C@@H]12; settings: UDP-glucuronic acid co-substrate, 37 °C, DHT-glucuronide formation
[3] = substrate: C[C@]12CC[C@H]3[C@@H](CCC4=CC(=O)CC[C@@]43C)[C@@H]1CC[C@@H]2O; settings: UDP-glucuronic acid co-substrate, 37 °C, testosterone-glucuronide formation
[4] = table value, text b37 prints 22.5 ± 5.1
[5] = table value, text b37 prints 17.8 ± 2.0

Row | Protein | Km [1, 4] | Vmax [1, 4] | Km [2] | Vmax [2] | Km [3] | Vmax [3] | Km [1, 5] | Vmax [1, 5] | Km [1] | Vmax [1]
1 | Ugt2b5 (Mus musculus) (protein) GKVLVWPMEFSHWMNIKIILDELVQRGHEVTVLRPSAYYVLDPKKSPGLKFETFPTSVSKDNLENFFIKFVDVWTYEMPRDTCLSYSPLLQNMIDEFSDYFLSLCKDVVSNKELMTKLQESKFDVLLSDPVASCGELIAELLQIPFLYSIRFSPGYQIEKSSGRFLLPPSYVPVILSGLGGQMTFIERIKNMICMLYFDFWFQMFNDKKWDSFYSEYLGRPTTLVETMGQAEMWLIRSNWDLEFPHPTLPNVDYVGGLHCKPAKPLPKDMEEFVQSSGDHGVVVFSLGSMVSNMTEEKANAIAWALAQIPQKVLWKFDGKTPATLGHNTRVYKWLPQNDLLGHPKTKAFVTHGGANGVYEAIYHGIPMIGIPLFGEQHDNIAHMVAKGAAVALNIRTMSKSDVLNALEEVIENPFYKKNAIWLSTIHHDQPMKPLDRAVFWIEFVMRHKRAKHLRPLGHNLTWYQYHSLDVIGFLLSCVATTIVLSVKCLLFIYRFFVKKENKMKNE | 22.7 ± 5.1 µM | 0.000115 µmol/min/mg | 35.6 ± 11.5 µM | 5.05e-05 µmol/min/mg | 65.5 ± 8.6 µM | 0.000186 µmol/min/mg |  |  |  | 
2 | Ugt2b1 (Mus musculus) (protein) KVLVWPTEYSHWINMKIILDELVQRGHDVTVLISSASILIGPSNESSINFEIYSAPLSKDDLEYAFEKWVGNWTYELKKLPFWTSYSKLQKISSEYSDMIESFCKAVVWNKSLMKKLQGSKFDVVLADALVPCGELLSELLKTPLVYSLRFCPGYKCEKYSGGLPLPPSYVPVVLSELSDHMTFAERVKNMLQVLLFDFWFQTFNEKSWNQFYSDVLGRPTTLTEMMGKADIWLVRTFWDLKFPHPFLPNFDFVGGLHCKPAKPLPKEMEEFVQSSGEHGVVVFSLGSMVKNIKEEKANVVASALAQIPQKVLWRFDGKKPDTLGSNTRLYKWIPQNDLLGHPKTKAFIAHGGTNGIYEAIYHGIPIVGIPLFGDQPDNINHIVAKGAAVRVDFDTMSTTDLLTALKTVINDPSYKENAMRLSRIHHDQPMKPLDRAVFWIEYVMRNKGAKHLRPALHDLTWFQYHSLDVIGFLLVCVVAVVFIIAKCCLFCCHKTANMGKKKKE |  |  | 17.8 ± 0.7 µM | 0.000238 µmol/min/mg | 20.3 ± 0.7 µM | 5.12e-05 µmol/min/mg | 11.7 ± 2.0 µM | 3.48e-05 µmol/min/mg |  | 
3 | Ugt2b34 (Mus musculus) (protein) GKVLVWPMEFSHWLNLKTILDELLKKGHEVMVLRPSASLSYEVDNTSAIEFETYPTSYSLSELEEIFWESLKKYIYELPKQSFWGYFLMLQEMVWVDSKYFESLCKDVVFNKELMTKLQKSRFDVILADPFIPCGDLLAEVLKIPLVYSLRFFPGSTYEKYSGGLPLPPSYVPVVMSELSDRMTFMERVRNVIYMLCFDFWFQTFNEKNWNQLYTEVLGRPTTLSETMAKADIWLIRTYWDLEFPHPVLPNFDFIGGLHCRPAKPLPKEIEDFVQSSGEHGVVVFSLGSMVGSITEERANVIAAGLAQIPQKVLWRFEGKKPETLGSNTRLYKWIPQNDLLGHSKTRAFITHGGTNGIYEAIYHGIPVVGIPLFGDQYDNIVHLKAKGAAVRLDFLTMSSTDLHTALKTVTNDPSYKENAMRLSRIHHDQPVKPLDRAVFWIEFVMRHKGAKHLRVAAHDLSWVQYHSLDVLGFLLACVLTVMFILKKCCLFCCQKLTKAGRKKKGE |  |  | 54.9 ± 2.9 µM | 4.31e-05 µmol/min/mg |  |  |  |  | 16.3 ± 4.8 µM | 8.5e-06 µmol/min/mg
